Test [1] deals with T1, hIL-18Rα ECD-Fc fusion protein (human, UniProt Q13478 22-329).
T1 construct: extracellular domain; captured on Protein A sensor
T1 sequence (looked up): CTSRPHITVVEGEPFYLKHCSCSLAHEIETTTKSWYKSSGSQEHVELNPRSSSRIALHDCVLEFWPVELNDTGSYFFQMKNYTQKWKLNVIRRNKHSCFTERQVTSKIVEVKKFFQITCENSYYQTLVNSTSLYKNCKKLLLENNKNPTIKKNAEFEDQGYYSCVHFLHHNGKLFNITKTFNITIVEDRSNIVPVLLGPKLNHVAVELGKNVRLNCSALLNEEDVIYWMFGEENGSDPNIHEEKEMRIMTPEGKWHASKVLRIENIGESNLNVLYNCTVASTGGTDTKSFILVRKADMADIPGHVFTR
As to the kind of experiment: BLI (Octet RED96), hIL-18Rα ECD-Fc on Protein A sensor. The procedure:
The affinities of IL-18 variant polypeptides for hIL-18Rα were assessed by Biolayer Interferometry (BLI) on Octet RED96 using Protein A sensor coated with hIL-18Rα ECD-Fc fusion protein, and WT hIL-18 was used as a control.

The target in test [2] is T2, recombinant hIL-18Rα extracellular domain (human, UniProt Q13478 22-329, biotin label (selection) or fluorescent probe (single-clone FACS), sites not given).
T2 construct: extracellular domain; also called hIL-18Rα ECD; hIL-18Rα-ECD
T2 sequence (looked up): T1 sequence (looked up)
As to the kind of experiment: single-clone FACS, yeast display, 10 nM labelled hIL-18Rα ECD. In outline:
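Yeast clones displaying IL-18 variants (screening rounds 4 and 5), at equal density, incubated with 10 nM fluorescently labelled hIL-18Rα ECD, then washed. Fraction of fluorescence-positive binding cells per clone measured by flow cytometry.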

Substitutions are numbered along the chain they refer to.

B1: IL-18 variant polypeptide M1 (ligand)
chain: YFPKLKSKLSVIRNLNDQVLFIDQGNRPLFEDMTDSDCRDNAPRTIFIISMYKHSDRRGMAVTISVKCEKISTLSCENKIISFKEMNPPDVIKDTKSDIIFFQVSVPGHDNKMQFESSSYEGYFLACEKERDLFKLILKKEDELGDRSIMFTVQNED
A word on the Kd: it is the concentration at which binding is half-saturated. As usually defined, the koff is the first-order rate constant of dissociation. A low value points to slow dissociation. A word on the kon: it is the second-order rate constant of association. For the molecule B1, in test [1], the Kd was 2030 nM, the “Response (nm)” value is 0.0186 nm, the koff came out at 0.111 s⁻¹ and the kon was found to be 54400 M⁻¹ s⁻¹. For the same molecule, the “% of fluorescence positive cells” value in test [2] is 89.8%.

B2: SEQ ID NO 86 (ligand)
chain: B1 chain with K6N, H54L, D56T, R57V, V91P, V104H
Consider B2, for which, in test [2], the “% of fluorescence positive cells” value turned out to be 9.28%.

B3: SEQ ID NO 107 (ligand)
chain: B1 chain with K6T, H54T, D56Y, R57E, V104R
As to B3, the “% of fluorescence positive cells” value in test [2] was determined as 1.23%.

B4: SEQ ID NO 89 (ligand)
chain: B1 chain with K6A, D56S, R57K
On to B4, for which the “% of fluorescence positive cells” value in test [2] was 5.27%.

B5: SEQ ID NO 84 (ligand)
chain: B1 chain with H54M, D56S, R57A, V91G, V104S
Regarding B5, in test [2], the “% of fluorescence positive cells” value was found to be 11.5%.

B6: SEQ ID NO 109 (ligand)
chain: B1 chain with P3K, K6P, H54L, D56S, R57E, V91N, V104R
Turning to B6, in test [2], the “% of fluorescence positive cells” value was determined as 0.98%.

B7: SEQ ID NO 95 (ligand)
chain: B1 chain with P3W, K6S, H54L, D56T, R57W, V91Y, V104R
As for B7, in test [2], the “% of fluorescence positive cells” value was determined as 3.45%.

B8: IL-18 variant polypeptide M3 (ligand)
chain: B1 chain with H54W, D56H, R57V, V91A, V104Y
Consider B8, for which, in test [1], binding was put at a Kd of 2140 nM, the “Response (nm)” value turned out to be 0.057 nm, the koff was determined as 0.0431 s⁻¹ and the kon worked out at 20100 M⁻¹ s⁻¹. Besides, the “% of fluorescence positive cells” value in test [2] turned out to be 93.3%.

B9: SEQ ID NO 83 (ligand)
chain: B1 chain with P3W, K6W, H54P, D56N, R57F, V104G
Regarding B9, the “% of fluorescence positive cells” value in test [2] was determined as 13.5%.

B10: IL-18 variant polypeptide M9 (ligand)
chain: B1 chain with K6R, H54W, D56R, R57A, V91S, V104S
Turning to B10, in test [1], the Kd was 4.88 nM, the “Response (nm)” value was under 0.02 nm, the koff was determined as 0.0108 s⁻¹ and the kon is 2.21e+06 M⁻¹ s⁻¹. Besides, in test [2], the “% of fluorescence positive cells” value was 36.1%.

B11: SEQ ID NO 92 (ligand)
chain: B1 chain with P3W, K6S, H54Q, D56L, V91R, V104A
Turning to B11, the “% of fluorescence positive cells” value in test [2] is 4.48%.

B12: SEQ ID NO 96 (ligand)
chain: B1 chain with K6H, H54R, D56T, R57L, V91G, V104R
B12: the “% of fluorescence positive cells” value in test [2] was 2.79%.

B13: SEQ ID NO 101 (ligand)
chain: B1 chain with H54L, D56R, R57T, V91F, V104S
Regarding B13, the “% of fluorescence positive cells” value in test [2] was determined as 1.91%.

B14: SEQ ID NO 87 (ligand)
chain: B1 chain with K6G, H54G, D56H, R57F, V91G, V104S
In the case of B14, in test [2], the “% of fluorescence positive cells” value turned out to be 6.12%.

B15: IL-18 variant polypeptide M11 (ligand)
chain: B1 chain with K6R, H54S, D56R, R57N, V91G, V104T
Take B15: in test [1], the Kd was determined as 68.2 nM, the “Response (nm)” value turned out to be 0.08 nm, the koff was 0.0189 s⁻¹ and the kon came out at 277000 M⁻¹ s⁻¹. Further, in test [2], the “% of fluorescence positive cells” value is 83.6%.

B16: IL-18 variant polypeptide M4 (ligand)
chain: B1 chain with H54W, D56G, R57V, V104F
Take B16: in test [1], binding was put at a Kd of 39.1 nM, the “Response (nm)” value is 0.0326 nm, the koff turned out to be 0.017 s⁻¹ and the kon was 436000 M⁻¹ s⁻¹. Moreover, in test [2], the “% of fluorescence positive cells” value came to 44.9%.

B17: SEQ ID NO 112 (ligand)
chain: B1 chain with K6R, D56T, R57N, V91I, V104I
On to B17, for which the “% of fluorescence positive cells” value in test [2] came out at 0.69%.

B18: SEQ ID NO 110 (ligand)
chain: B1 chain with K6N, H54L, D56P, V91N, V104R
Regarding B18, the “% of fluorescence positive cells” value in test [2] turned out to be 0.71%.

B19: IL-18 variant polypeptide M5 (ligand)
chain: B1 chain with P3E, K6T, H54W, D56P, R57W, V104T, N155K
Take B19: in test [1], the affinity, expressed as Kd, was 38.8 nM; the “Response (nm)” value was found to be 0.0468 nm; the koff worked out at 0.0149 s⁻¹; the kon was 383000 M⁻¹ s⁻¹. Moreover, the “% of fluorescence positive cells” value in test [2] was 96%.

B20: IL-18 variant polypeptide M10 (ligand)
chain: B1 chain with K6R, H54Q, D56L, R57W, V91S, V104R
For B20, in test [1], the Kd stood at 48.6 nM, the “Response (nm)” value is 0.0788 nm, the koff came to 0.0235 s⁻¹ and the kon was determined as 483000 M⁻¹ s⁻¹. The “% of fluorescence positive cells” value in test [2] turned out to be 68.1%.

B21: SEQ ID NO 111 (ligand)
chain: B1 chain with K6E, H54Y, D56S, R57K, V91G, V104R
For the molecule B21, the “% of fluorescence positive cells” value in test [2] worked out at 0.69%.

B22: SEQ ID NO 80 (ligand)
chain: B1 chain with K6R, H54W, D56Y, R57P, V91G, V104F
With B22, in test [2], the “% of fluorescence positive cells” value was 18.6%.

B23: SEQ ID NO 79 (ligand)
chain: B1 chain with K6G, H54W, D56Q, R57P, V104Y
For B23, the “% of fluorescence positive cells” value in test [2] was 21.5%.

B24: SEQ ID NO 108 (ligand)
chain: B1 chain with K6G, H54Q, D56H, R57Y, V91N, V104R
Consider B24, for which the “% of fluorescence positive cells” value in test [2] was 1.08%.

B25: SEQ ID NO 90 (ligand)
chain: B1 chain with K6R, H54S, D56L, R57K, V91T, V104S
With B25, in test [2], the “% of fluorescence positive cells” value is 5.15%.

B26: SEQ ID NO 88 (ligand)
chain: B1 chain with K6S, D56S, V104A
With B26, in test [2], the “% of fluorescence positive cells” value was 5.45%.

B27: SEQ ID NO 93 (ligand)
chain: B1 chain with P3G, K6P, H54L, D56N, V91G, V104R
With B27, the “% of fluorescence positive cells” value in test [2] was found to be 4.48%.

B28: SEQ ID NO 103 (ligand)
chain: B1 chain with P3S, K6P, H54W, D56P, V91I, V104S
As for B28, in test [2], the “% of fluorescence positive cells” value amounted to 1.44%.

B29: SEQ ID NO 115 (ligand)
chain: B1 chain with K6G, H54I, D56H, R57D, V91T, V104S
B29: in test [2], the “% of fluorescence positive cells” value was determined as 0.35%.

B30: SEQ ID NO 106 (ligand)
chain: B1 chain with K6S, H54A, D56S, R57L, V91S, V104R
Regarding B30, the “% of fluorescence positive cells” value in test [2] came out at 1.34%.

B31: SEQ ID NO 97 (ligand)
chain: B1 chain with H54T, D56F, R57N, V104R
As for B31, the “% of fluorescence positive cells” value in test [2] worked out at 2.66%.

B32: SEQ ID NO 85 (ligand)
chain: B1 chain with H54W, D56G, R57G, V91S, V104F
For B32, the “% of fluorescence positive cells” value in test [2] stood at 10.8%.

B33: IL-18 variant polypeptide M7 (ligand)
chain: B1 chain with K6R, D56T, R57A, V91A, V104R
As to B33, in test [1], the Kd is 11.9 nM, the “Response (nm)” value amounted to 0.0222 nm, the koff came out at 0.0271 s⁻¹ and the kon was determined as 2.27e+06 M⁻¹ s⁻¹. Besides, the “% of fluorescence positive cells” value in test [2] was 93.8%.

B34: SEQ ID NO 118 (ligand)
chain: B1 chain with K6A, H54W, D56N, R57A, V91S, V104R
As to B34, the “% of fluorescence positive cells” value in test [2] worked out at 0.15%.

B35: SEQ ID NO 113 (ligand)
chain: B1 chain with K6R, H54I, D56I, R57S, V91N, V104R
Turning to B35, the “% of fluorescence positive cells” value in test [2] stood at 0.61%.

B36: SEQ ID NO 100 (ligand)
chain: B1 chain with P3S, K6P, H54Y, D56T, R57W, V91F, V104S
In the case of B36, in test [2], the “% of fluorescence positive cells” value turned out to be 2.16%.

B37: SEQ ID NO 102 (ligand)
chain: B1 chain with K6R, H54F, D56N, R57F, V91A, V104S
Regarding B37, the “% of fluorescence positive cells” value in test [2] stood at 1.64%.

B38: SEQ ID NO 82 (ligand)
chain: B1 chain with K6R, H54L, D56T, R57I, V91Y, V104R
With B38, the “% of fluorescence positive cells” value in test [2] amounted to 14.5%.

B39: SEQ ID NO 98 (ligand)
chain: B1 chain with K6T, H54Y, D56T, V91N, V104R
For the molecule B39, the “% of fluorescence positive cells” value in test [2] is 2.36%.

B40: IL-18 variant polypeptide M2 (ligand)
chain: B1 chain with P3S, H54W, D56P, R57D, V91G, V104T
Take B40: in test [1], the Kd worked out at 12200 nM, the “Response (nm)” value is 0.0184 nm, the koff was determined as 0.0499 s⁻¹ and the kon is 4090 M⁻¹ s⁻¹. Further, the “% of fluorescence positive cells” value in test [2] amounted to 91.6%.

Source of the values: patent US20260092093A1 (TJ BIOPHARMA SHANGHAI, published 2026).
